From paper PMC3528108
Where two headings read alike, the source gives them in different places.

Tests used:
[1] = target: T1, GST-TRF2 (human, UniProt Q15554 1-542); assay: ELISA
[2] = target: T1, GST-TRF2; assay: ELISA; remark: listed apart in the source

T1 sequence (Q15554 whole entry): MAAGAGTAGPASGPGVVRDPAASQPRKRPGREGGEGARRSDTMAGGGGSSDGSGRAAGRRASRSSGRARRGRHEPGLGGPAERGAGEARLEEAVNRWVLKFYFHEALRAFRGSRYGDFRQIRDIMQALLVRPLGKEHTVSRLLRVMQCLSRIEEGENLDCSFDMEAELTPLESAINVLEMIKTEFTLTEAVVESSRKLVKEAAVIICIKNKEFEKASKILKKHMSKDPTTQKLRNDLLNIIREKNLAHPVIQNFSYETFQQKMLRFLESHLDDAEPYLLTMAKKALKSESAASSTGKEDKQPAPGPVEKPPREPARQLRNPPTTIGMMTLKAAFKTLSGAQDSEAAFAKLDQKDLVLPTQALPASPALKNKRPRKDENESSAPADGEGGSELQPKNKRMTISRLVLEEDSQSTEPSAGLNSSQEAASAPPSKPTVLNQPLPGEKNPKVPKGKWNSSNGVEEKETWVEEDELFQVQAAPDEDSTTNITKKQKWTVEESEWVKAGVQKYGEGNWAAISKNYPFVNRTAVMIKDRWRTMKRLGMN

Binder: AGGGGGCCGUGGGGUGGGAGCUGGGG (structured_RNA) [BCL2 RNA G-quadruplex]
- binding result [1]: binds

Binder: UUACCGUUACCGUUACCGUUACCG (ssRNA) [TERRA-mut]
- binding result [2]: no binding

Binder: AGGGAGGGGCGGGUCUGGG (structured_RNA) [NRAS RNA G-quadruplex]
- binding result [1]: binds
